Laboratory results reported in US20190169240, “DNA-BINDING PROTEIN USING PPR MOTIF, AND USE THEREOF” (KYUSHU UNIVERSITY, NAT'L UNIVERSITY CORPORATION, published 2019).

Legend:
Conditions in all cases: tags: N-terminal Flag and nuclear localization signal, C-terminal VP64
[1] = molecular target: T1, pTac2-VP64 (PPR motif region) (Arabidopsis thaliana, UniProt Q9S7Q2 SEQ:106-632); assay: cell_activity; 8x target reporter; HEK293T, Fluc/Rluc vs pminCMV-luc2
T1 chain: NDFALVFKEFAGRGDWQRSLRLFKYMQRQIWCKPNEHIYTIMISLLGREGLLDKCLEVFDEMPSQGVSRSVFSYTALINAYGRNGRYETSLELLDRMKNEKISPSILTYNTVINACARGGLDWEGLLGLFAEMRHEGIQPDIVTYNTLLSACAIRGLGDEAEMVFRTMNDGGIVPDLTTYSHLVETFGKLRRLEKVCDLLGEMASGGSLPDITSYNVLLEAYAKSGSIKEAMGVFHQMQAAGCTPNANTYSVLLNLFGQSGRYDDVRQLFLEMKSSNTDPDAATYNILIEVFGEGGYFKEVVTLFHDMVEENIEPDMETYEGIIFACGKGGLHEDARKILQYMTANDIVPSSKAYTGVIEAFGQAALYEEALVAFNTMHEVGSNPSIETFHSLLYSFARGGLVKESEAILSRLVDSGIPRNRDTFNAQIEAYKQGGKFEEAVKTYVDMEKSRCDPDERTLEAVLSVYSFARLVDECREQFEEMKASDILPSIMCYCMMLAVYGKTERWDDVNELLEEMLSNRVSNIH
Experimental: (§1) A reporter vector (pminCMV-luc2, SEQ ID NO: 10) was prepared, in which the firefly luciferase gene was ligated downstream from the Minimal CMV promoter, and a multi-cloning site was placed upstream of the promoter. The predicted target sequence of each PPR was inserted into the vector at the multi-cloning site. The target sequence of each PPR ([…] for p63, […] for pTac2, and […] for GUN1, SEQ ID NOS: 11 to 13 in Sequence Listing) was determined by predicting the motif-DNA recognition codes of DNA-binding type PPR from the motif-RNA recognition codes observed in the RNA-binding type PPR. For each PPR, sequences containing 4 or 8 of target sequences were prepared, and used in the following assay. The nucleotide sequences of the vectors are shown as SEQ ID NOS: 14 to 19 in Sequence Listing. […]
(§2) The luciferase activity was compared for the cases of introducing pTac2-VP64 or GUN1-VP64 together with pminCMV-luc2 for a negative control, or the reporter vector having 4 or 8 target sequences (table mentioned below, FIG. 6). The comparison of the activity was performed on the basis of standardized scores obtained by dividing the measured values obtained with Fluc (firefly luciferase) with the measured value obtained with Rluc (Renilla luciferase) as the reference (Fluc/Rluc).

[2] = molecular target: T2, GUN1-VP64 (PPR motif region) (Arabidopsis thaliana, UniProt Q9SIC9 SEQ:234-621); assay: cell_activity; 4x target reporter; HEK293T, Fluc/Rluc vs pminCMV-luc2
T2 chain: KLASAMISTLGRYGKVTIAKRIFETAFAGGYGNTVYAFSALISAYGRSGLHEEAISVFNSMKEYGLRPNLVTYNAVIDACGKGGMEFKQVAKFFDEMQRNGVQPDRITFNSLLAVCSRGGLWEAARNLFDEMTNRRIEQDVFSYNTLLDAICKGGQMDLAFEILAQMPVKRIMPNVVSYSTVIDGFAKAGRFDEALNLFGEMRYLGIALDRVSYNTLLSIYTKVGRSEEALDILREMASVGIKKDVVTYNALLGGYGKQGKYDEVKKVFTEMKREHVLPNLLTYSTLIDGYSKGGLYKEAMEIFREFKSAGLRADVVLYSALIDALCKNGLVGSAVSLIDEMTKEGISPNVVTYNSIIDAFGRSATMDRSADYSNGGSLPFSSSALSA
Experimental: as §1, §2

[3] = molecular target: T2, GUN1-VP64 (PPR motif region); assay: cell_activity; 8x target reporter; HEK293T, Fluc/Rluc vs pminCMV-luc2
Experimental: as §1, §2

B1: pTac2 predicted target (dsDNA)
DNA 1: AACTTTCGTCACTCA
DNA 2: TGAGTGACGAAAGTT
activity [1]: 4.89 fold activation

B2: GUN1 predicted target (dsDNA)
DNA 1: AATTTGTCGAT
DNA 2: ATCGACAAATT
activity [2]: 2.88 fold activation | activity [3]: 3.15 fold activation
